Where no end group is shown, it is not given here.
T1: epitope peptide Cys-CE3C long (also: biotin label, site not given here)
T1 peptide: CSVNVDKQPKYEYSL


Target: T1, epitope peptide Cys-CE3C long
Test: ELISA, supernatant IgG on anti-human IgG plate, biotin-peptide + streptavidin-HRP; titer per unit IgG
Description: The amount of IgG in the supernatant was determined by the following method. To evaluate the amount of IgG in the supernatant, the culture supernatant was added to an anti-human IgG antibody (manufactured by Jackson) immobilized plate, after reacting at room temperature for 3 hours, washed twice with ELISA wash buffer, and HRP-labeled anti-human IgG antibody (manufactured by Jackson) was reacted at 4° C. overnight. After washing twice with ELISA wash buffer and developing color by adding TMB-Substrate Chromogen (manufactured by Thermo Fisher Scientific), the reaction was stopped with an equal volume of 0.5N sulfuric acid, and the absorbance at 450 nm was measured to calculate (A) the dilution factor of the culture supernatant at which the OD was 1.0.
The titer of IgG in the supernatant against the epitope peptide was determined by the following method. In order to evaluate the titer of IgG in the supernatant against epitope peptides, the culture supernatant was added to an anti-human IgG antibody (manufactured by Jackson) immobilized plate, reacted for 3 hours at room temperature, and then washed twice with ELISA wash buffer, and a biotin-labeled epitope peptide (Cys-CE3C long: SEQ ID NO: 13) and Streptavidin-HRP (manufactured by PIERCE) were added and reacted overnight at 4° C. After washing twice with ELISA wash buffer and developing color by adding TMB-Substrate Chromogen (manufactured by Thermo Fisher Scientific), the reaction was stopped with an equal volume of 0.5N sulfuric acid, the absorbance at 450 nm was measured to calculate (B) the dilution ratio of the culture supernatant at which the OD was 1.0.
The titer (ratio) against the epitope peptide (Cys-CE3C long: SEQ ID NO: 13) per unit IgG amount was calculated as (B)/(A).

| Binder | (B)/(A) titer (ratio) against the epitope peptide per unit IgG amount |
| --- | --- |
| humanized 15H11 CDR graft IGKV3-11 / IGHV1-18 (R94P) (antibody, human IgG4 S228P, kappa, V domains shown, hIgG4Pro/hIgK) VH: QVQLVQSGAEVKKPGASVKVSCKASGYTFTDYNMHWVRQAPGQGLEWMGRINPKNGVINSNEKFKDRVTMTTDTSTSTAYMELRSLRSDDTAVYYCAPSYYGGNTDAYWGQGTLVTVSS VL: EIVLTQSPATLSLSPGERATLSCRASESVDNYGISFMNWYQQKPGQAPRLLIYAASSQGSGIPARFSGSGSGTDFTLTISSLEPEDFAVYYCQQSKEFPWTFGGGTKVEIKR | 0.15 |
| humanized 15H11 CDR graft IGKV3-11 / IGHV7-4-1 (R94P) (antibody, human IgG4 S228P, kappa, V domains shown, hIgG4Pro/hIgK) VH: QVQLVQSGSELKKPGASVKVSCKASGYTFTDYNMHWVRQAPGQGLEWMGRINPKNGVINSNEKFKDRFVFSLDTSVSTAYLQISSLKAEDTAVYYCAPSYYGGNTDAYWGQGTLVTVSS VL: EIVLTQSPATLSLSPGERATLSCRASESVDNYGISFMNWYQQKPGQAPRLLIYAASSQGSGIPARFSGSGSGTDFTLTISSLEPEDFAVYYCQQSKEFPWTFGGGTKVEIKR | 0.18 |
| humanized 15H11 CDR graft IGKV4-1 / IGHV1-2 (R94P) (antibody, human IgG4 S228P, kappa, V domains shown, hIgG4Pro/hIgK) VH: QVQLVQSGAEVKKPGASVKVSCKASGYTFTDYNMHWVRQAPGQGLEWMGRINPKNGVINSNEKFKDRVTMTRDTSISTAYMELSRLRSDDTAVYYCAPSYYGGNTDAYWGQGTLVTVSS VL: DIVMTQSPDSLAVSLGERATINCRASESVDNYGISFMNWYQQKPGQPPKLLIYAASSQGSGVPDRFSGSGSGTDFTLTISSLQAEDVAVYYCQQSKEFPWTFGGGTKVEIKR | 0.18 |
| humanized 15H11 CDR graft IGKV7-3 / IGHV1-2 (antibody, human IgG4 S228P, kappa, V domains shown, hIgG4Pro/hIgK) VH: QVQLVQSGAEVKKPGASVKVSCKASGYTFTDYNMHWVRQAPGQGLEWMGRINPKNGVINSNEKFKDRVTMTRDTSISTAYMELSRLRSDDTAVYYCARSYYGGNTDAYWGQGTLVTVSS VL: DIVLTQSPASLAVSPGQRATITCRASESVDNYGISFMNWYQQKPGQPPKLLIYAASSQGSGVPARFSGSGSGTDFTLTINPVEANDTANYYCQQSKEFPWTFGGGTKVEIKR | 0.04 |
| humanized 15H11 CDR graft IGKV4-1 / IGHV1-2 (antibody, human IgG4 S228P, kappa, V domains shown, hIgG4Pro/hIgK) VH: QVQLVQSGAEVKKPGASVKVSCKASGYTFTDYNMHWVRQAPGQGLEWMGRINPKNGVINSNEKFKDRVTMTRDTSISTAYMELSRLRSDDTAVYYCARSYYGGNTDAYWGQGTLVTVSS VL: DIVMTQSPDSLAVSLGERATINCRASESVDNYGISFMNWYQQKPGQPPKLLIYAASSQGSGVPDRFSGSGSGTDFTLTISSLQAEDVAVYYCQQSKEFPWTFGGGTKVEIKR | 0.03 |
| humanized 15H11 CDR graft IGKV7-3 / IGHV1-18 (R94P) (antibody, human IgG4 S228P, kappa, V domains shown, hIgG4Pro/hIgK) VH: QVQLVQSGAEVKKPGASVKVSCKASGYTFTDYNMHWVRQAPGQGLEWMGRINPKNGVINSNEKFKDRVTMTTDTSTSTAYMELRSLRSDDTAVYYCAPSYYGGNTDAYWGQGTLVTVSS VL: DIVLTQSPASLAVSPGQRATITCRASESVDNYGISFMNWYQQKPGQPPKLLIYAASSQGSGVPARFSGSGSGTDFTLTINPVEANDTANYYCQQSKEFPWTFGGGTKVEIKR | 0.24 |
| humanized 15H11 CDR graft IGKV7-3 / IGHV1-3 (R94P) (antibody, human IgG4 S228P, kappa, V domains shown, hIgG4Pro/hIgK) VH: QVQLVQSGAEVKKPGASVKVSCKASGYTFTDYNMHWVRQAPGQRLEWMGRINPKNGVINSNEKFKDRVTITRDTSASTAYMELSSLRSEDTAVYYCAPSYYGGNTDAYWGQGTLVTVSS VL: DIVLTQSPASLAVSPGQRATITCRASESVDNYGISFMNWYQQKPGQPPKLLIYAASSQGSGVPARFSGSGSGTDFTLTINPVEANDTANYYCQQSKEFPWTFGGGTKVEIKR | 0.21 |
| humanized 15H11 CDR graft IGKV3-20 / IGHV1-46 (R94P) (antibody, human IgG4 S228P, kappa, V domains shown, hIgG4Pro/hIgK) VH: QVQLVQSGAEVKKPGASVKVSCKASGYTFTDYNMHWVRQAPGQGLEWMGRINPKNGVINSNEKFKDRVTMTRDTSTSTVYMELSSLRSEDTAVYYCAPSYYGGNTDAYWGQGTLVTVSS VL: EIVLTQSPATLSLSPGERATLSCRASESVDNYGISFMNWYQQKPGQAPRLLIYAASSQGSGIPARFSGSGSGTDFTLTISRLEPEDFAVYYCQQSKEFPWTFGGGTKVEIKR | 0.09 |
| humanized 15H11 CDR graft IGKV7-3 / IGHV1-46 (R94P) (antibody, human IgG4 S228P, kappa, V domains shown, hIgG4Pro/hIgK) VH: QVQLVQSGAEVKKPGASVKVSCKASGYTFTDYNMHWVRQAPGQGLEWMGRINPKNGVINSNEKFKDRVTMTRDTSTSTVYMELSSLRSEDTAVYYCAPSYYGGNTDAYWGQGTLVTVSS VL: DIVLTQSPASLAVSPGQRATITCRASESVDNYGISFMNWYQQKPGQPPKLLIYAASSQGSGVPARFSGSGSGTDFTLTINPVEANDTANYYCQQSKEFPWTFGGGTKVEIKR | 0.18 |

Next, values leading:

| (B)/(A) titer (ratio) against the epitope peptide per unit IgG amount | Binder |
| --- | --- |
| 0.15 | humanized 15H11 CDR graft IGKV4-1 / IGHV1-3 (R94P) (antibody, human IgG4 S228P, kappa, V domains shown, hIgG4Pro/hIgK) VH: QVQLVQSGAEVKKPGASVKVSCKASGYTFTDYNMHWVRQAPGQRLEWMGRINPKNGVINSNEKFKDRVTITRDTSASTAYMELSSLRSEDTAVYYCAPSYYGGNTDAYWGQGTLVTVSS VL: DIVMTQSPDSLAVSLGERATINCRASESVDNYGISFMNWYQQKPGQPPKLLIYAASSQGSGVPDRFSGSGSGTDFTLTISSLQAEDVAVYYCQQSKEFPWTFGGGTKVEIKR |
| 0.13 | humanized 15H11 CDR graft IGKV4-1 / IGHV1-18 (R94P) (antibody, human IgG4 S228P, kappa, V domains shown, hIgG4Pro/hIgK) VH: QVQLVQSGAEVKKPGASVKVSCKASGYTFTDYNMHWVRQAPGQGLEWMGRINPKNGVINSNEKFKDRVTMTTDTSTSTAYMELRSLRSDDTAVYYCAPSYYGGNTDAYWGQGTLVTVSS VL: DIVMTQSPDSLAVSLGERATINCRASESVDNYGISFMNWYQQKPGQPPKLLIYAASSQGSGVPDRFSGSGSGTDFTLTISSLQAEDVAVYYCQQSKEFPWTFGGGTKVEIKR |
| 0.22 | humanized 15H11 CDR graft IGKV7-3 / IGHV1-2 (R94P) (antibody, human IgG4 S228P, kappa, V domains shown, hIgG4Pro/hIgK) VH: QVQLVQSGAEVKKPGASVKVSCKASGYTFTDYNMHWVRQAPGQGLEWMGRINPKNGVINSNEKFKDRVTMTRDTSISTAYMELSRLRSDDTAVYYCAPSYYGGNTDAYWGQGTLVTVSS VL: DIVLTQSPASLAVSPGQRATITCRASESVDNYGISFMNWYQQKPGQPPKLLIYAASSQGSGVPARFSGSGSGTDFTLTINPVEANDTANYYCQQSKEFPWTFGGGTKVEIKR |
| 0.12 | humanized 15H11 CDR graft IGKV3-20 / IGHV1-3 (R94P) (antibody, human IgG4 S228P, kappa, V domains shown, hIgG4Pro/hIgK) VH: QVQLVQSGAEVKKPGASVKVSCKASGYTFTDYNMHWVRQAPGQRLEWMGRINPKNGVINSNEKFKDRVTITRDTSASTAYMELSSLRSEDTAVYYCAPSYYGGNTDAYWGQGTLVTVSS VL: EIVLTQSPATLSLSPGERATLSCRASESVDNYGISFMNWYQQKPGQAPRLLIYAASSQGSGIPARFSGSGSGTDFTLTISRLEPEDFAVYYCQQSKEFPWTFGGGTKVEIKR |
| 0.15 | humanized 15H11 CDR graft IGKV3-20 / IGHV7-4-1 (R94P) (antibody, human IgG4 S228P, kappa, V domains shown, hIgG4Pro/hIgK) VH: QVQLVQSGSELKKPGASVKVSCKASGYTFTDYNMHWVRQAPGQGLEWMGRINPKNGVINSNEKFKDRFVFSLDTSVSTAYLQISSLKAEDTAVYYCAPSYYGGNTDAYWGQGTLVTVSS VL: EIVLTQSPATLSLSPGERATLSCRASESVDNYGISFMNWYQQKPGQAPRLLIYAASSQGSGIPARFSGSGSGTDFTLTISRLEPEDFAVYYCQQSKEFPWTFGGGTKVEIKR |
| 0.13 | humanized 15H11 CDR graft IGKV3-20 / IGHV1-18 (R94P) (antibody, human IgG4 S228P, kappa, V domains shown, hIgG4Pro/hIgK) VH: QVQLVQSGAEVKKPGASVKVSCKASGYTFTDYNMHWVRQAPGQGLEWMGRINPKNGVINSNEKFKDRVTMTTDTSTSTAYMELRSLRSDDTAVYYCAPSYYGGNTDAYWGQGTLVTVSS VL: EIVLTQSPATLSLSPGERATLSCRASESVDNYGISFMNWYQQKPGQAPRLLIYAASSQGSGIPARFSGSGSGTDFTLTISRLEPEDFAVYYCQQSKEFPWTFGGGTKVEIKR |
| 0.12 | humanized 15H11 CDR graft IGKV3-20 / IGHV1-2 (R94P) (antibody, human IgG4 S228P, kappa, V domains shown, hIgG4Pro/hIgK) VH: QVQLVQSGAEVKKPGASVKVSCKASGYTFTDYNMHWVRQAPGQGLEWMGRINPKNGVINSNEKFKDRVTMTRDTSISTAYMELSRLRSDDTAVYYCAPSYYGGNTDAYWGQGTLVTVSS VL: EIVLTQSPATLSLSPGERATLSCRASESVDNYGISFMNWYQQKPGQAPRLLIYAASSQGSGIPARFSGSGSGTDFTLTISRLEPEDFAVYYCQQSKEFPWTFGGGTKVEIKR |
| 0.12 | humanized 15H11 CDR graft IGKV3-11 / IGHV1-46 (R94P) (antibody, human IgG4 S228P, kappa, V domains shown, hIgG4Pro/hIgK) VH: QVQLVQSGAEVKKPGASVKVSCKASGYTFTDYNMHWVRQAPGQGLEWMGRINPKNGVINSNEKFKDRVTMTRDTSTSTVYMELSSLRSEDTAVYYCAPSYYGGNTDAYWGQGTLVTVSS VL: EIVLTQSPATLSLSPGERATLSCRASESVDNYGISFMNWYQQKPGQAPRLLIYAASSQGSGIPARFSGSGSGTDFTLTISSLEPEDFAVYYCQQSKEFPWTFGGGTKVEIKR |
| 0.04 | humanized 15H11 CDR graft IGKV3-20 / IGHV1-2 (antibody, human IgG4 S228P, kappa, V domains shown, hIgG4Pro/hIgK) VH: QVQLVQSGAEVKKPGASVKVSCKASGYTFTDYNMHWVRQAPGQGLEWMGRINPKNGVINSNEKFKDRVTMTRDTSISTAYMELSRLRSDDTAVYYCARSYYGGNTDAYWGQGTLVTVSS VL: EIVLTQSPATLSLSPGERATLSCRASESVDNYGISFMNWYQQKPGQAPRLLIYAASSQGSGIPARFSGSGSGTDFTLTISRLEPEDFAVYYCQQSKEFPWTFGGGTKVEIKR |

— patent US20250163145A1 (SHIONOGI, published 2025)
